The supplement of paper PMC10567573

B1: PDS5B (parent)
chain: ITYPPGVKEISDKISKEEMVRRLK
B2: ACSBG2 (parent)
chain: TPMTIPEFFRESVNRFGTYPALAS

Variants of: B1
Experiment: protein stability index of a GFP-peptide fusion (GPS, HEK-293T) (PSI 1-6); higher = more stable
Details: c terminus: a fixed tail appended
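Also: lentivirally expressed fusions sorted by FACS into six bins by GFP to DsRed ratio, PSI derived from sequencing read proportions per bin multiplied by bin number.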

| Variant | protein stability index |
| --- | --- |
| ITYPPGVKEINDKISKEEMVRRLK [S11N] | 3.98 |
| ITYPPGVKEIQDKISKEEMVRRLK [S11Q] | 4.16 |
| ITYPPGVKEIIDKISKEEMVRRLK [S11I] | 2.83 |
| ITYPPGVKEISDKISKEEMVRRLY [K24Y] | 2.67 |
| ITYPPGVKEISDKISKEEMVRRLH [K24H] | 3.85 |
| ITYPPGVKEISDKISKEEMVRRLG [K24G] | 3.77 |
| ITYPPGVKEISDKISKEEMVRRLM [K24M] | 3.11 |
| ITYPPGVKEISDKISKEEMVRRLE [K24E] | 4.38 |
| ITYPPGVKEISDKISKEEMVRRLI [K24I] | 3.04 |
| ITYPPGVKEISDKISKEEMVRRLF [K24F] | 2.48 |
| ITEPPGVKEISDKISKEEMVRRLK [Y3E] | 4.47 |
| ITRPPGVKEISDKISKEEMVRRLK [Y3R] | 4.96 |
| ITFPPGVKEISDKISKEEMVRRLK [Y3F] | 3.85 |
| ITYPPGVKEISRKISKEEMVRRLK [D12R] | 3.19 |
| ITYPPGVKEISEKISKEEMVRRLK [D12E] | 3.57 |
| ITYPPGVKEISHKISKEEMVRRLK [D12H] | 3.83 |
| ITYPPGVKEISKKISKEEMVRRLK [D12K] | 3.43 |
| ITYPPGVKEISFKISKEEMVRRLK [D12F] | 2.71 |
| ITYPPGVKEISCKISKEEMVRRLK [D12C] | 3.03 |
| ITYPPGVKEISNKISKEEMVRRLK [D12N] | 4.05 |
| ITYPPGVKEISPKISKEEMVRRLK [D12P] | 3.7 |
| ITYPPGVKDISDKISKEEMVRRLK [E9D] | 3.98 |
| ITYPPGVKQISDKISKEEMVRRLK [E9Q] | 3.35 |
| ITYPPGVKHISDKISKEEMVRRLK [E9H] | 3.43 |
| ITYPPGVKYISDKISKEEMVRRLK [E9Y] | 2.79 |

| Variant | protein stability index |
| --- | --- |
| ITYPPGVKRISDKISKEEMVRRLK [E9R] | 2.11 |
| ITYPPGVKTISDKISKEEMVRRLK [E9T] | 3.15 |
| ITYPPGVKSISDKISKEEMVRRLK [E9S] | 3.81 |
| ITYPPGVKKISDKISKEEMVRRLK [E9K] | 3.66 |
| ITYPPGVKEISDKISKEEMRRRLK [V20R] | 4.61 |
| ITYPPGVKEISDKISKEEMIRRLK [V20I] | 3.42 |
| ITYPPGVKEISDKISKEEMQRRLK [V20Q] | 4.03 |
| ITYPPGVKEISDKISKEEMNRRLK [V20N] | 4.4 |
| ITYPPGVKEISDKISKEEMHRRLK [V20H] | 4.19 |
| ITYPPGVKEISDKISKEEMLRRLK [V20L] | 3.49 |
| ITYPPGVKEISDKISKEEMSRRLK [V20S] | 4.83 |
| ITYPPGVKEISDKHSKEEMVRRLK [I14H] | 5.35 |
| ITYPPGVKEISDKVSKEEMVRRLK [I14V] | 4.02 |
| ITYPPGVKEISDKESKEEMVRRLK [I14E] | 4.61 |
| ITYPPGVKEISDKYSKEEMVRRLK [I14Y] | 2.68 |
| ITYPPGVKEISDKSSKEEMVRRLK [I14S] | 4.86 |
| ITYPPGVKEISDKNSKEEMVRRLK [I14N] | 2.93 |
| ITYPPGVKEISDKISKFEMVRRLK [E17F] | 2.41 |
| ITYPPGVKEISDKISKSEMVRRLK [E17S] | 3.68 |
| ITYPPGVKEISDKISKGEMVRRLK [E17G] | 3.52 |
| ITYPPGVKEISDKISKPEMVRRLK [E17P] | 3.6 |
| ITYPPGVKEISDKISKTEMVRRLK [E17T] | 4.68 |
| ITYPPGVKEISDKISKDEMVRRLK [E17D] | 3.72 |
| ITYPPGVKEISDKISKWEMVRRLK [E17W] | 2.75 |
| ITYPPGVKEYSDKISKEEMVRRLK [I10Y] | 4.44 |

| Variant | protein stability index |
| --- | --- |
| ITYPPGVKEESDKISKEEMVRRLK [I10E] | 4.38 |
| ITYPPGVKEGSDKISKEEMVRRLK [I10G] | 4.61 |
| ITYPPGVKEHSDKISKEEMVRRLK [I10H] | 3.62 |
| ITYPPGVKEDSDKISKEEMVRRLK [I10D] | 4.88 |
| ITYPPGVKELSDKISKEEMVRRLK [I10L] | 4.33 |
| ITYPPGVKERSDKISKEEMVRRLK [I10R] | 3.74 |
| ITYPPGVKESSDKISKEEMVRRLK [I10S] | 4.53 |
| ITYPPGVKEASDKISKEEMVRRLK [I10A] | 4.03 |
| ITYPPGVKEISDKISFEEMVRRLK [K16F] | 3 |
| ITYPPGVKEISDKISTEEMVRRLK [K16T] | 3.06 |
| ITYPPGVKEISDKISVEEMVRRLK [K16V] | 3.36 |
| ITYPPTVKEISDKISKEEMVRRLK [G6T] | 4.31 |
| ITYPPFVKEISDKISKEEMVRRLK [G6F] | 3.31 |
| ITYPPIVKEISDKISKEEMVRRLK [G6I] | 3.55 |
| ITYPPEVKEISDKISKEEMVRRLK [G6E] | 5.04 |
| ITYPPAVKEISDKISKEEMVRRLK [G6A] | 4.26 |
| ITYPPNVKEISDKISKEEMVRRLK [G6N] | 3.54 |
| ITYPPWVKEISDKISKEEMVRRLK [G6W] | 3.3 |
| ITYPPKVKEISDKISKEEMVRRLK [G6K] | 4.57 |
| ITYPPRVKEISDKISKEEMVRRLK [G6R] | 4 |
| ITYPPLVKEISDKISKEEMVRRLK [G6L] | 3.65 |
| ITYPPMVKEISDKISKEEMVRRLK [G6M] | 3.33 |
| ITYPPVVKEISDKISKEEMVRRLK [G6V] | 3.27 |

Variants of: B2
Experiment: as above
Details: c terminus: a fixed tail appended

| Variant | protein stability index |
| --- | --- |
| MPMTIPEFFRESVNRFGTYPALAS [T1M] | 1.85 |
| IPMTIPEFFRESVNRFGTYPALAS [T1I] | 1.93 |
| EPMTIPEFFRESVNRFGTYPALAS [T1E] | 2.12 |
| CPMTIPEFFRESVNRFGTYPALAS [T1C] | 1.73 |
| KPMTIPEFFRESVNRFGTYPALAS [T1K] | 3.04 |
| NPMTIPEFFRESVNRFGTYPALAS [T1N] | 2.12 |
| PPMTIPEFFRESVNRFGTYPALAS [T1P] | 2.43 |
| FPMTIPEFFRESVNRFGTYPALAS [T1F] | 2.24 |
| LPMTIPEFFRESVNRFGTYPALAS [T1L] | 2.08 |
| SPMTIPEFFRESVNRFGTYPALAS [T1S] | 2.13 |
| VPMTIPEFFRESVNRFGTYPALAS [T1V] | 1.93 |
| APMTIPEFFRESVNRFGTYPALAS [T1A] | 2.28 |
| QPMTIPEFFRESVNRFGTYPALAS [T1Q] | 2.44 |
| GPMTIPEFFRESVNRFGTYPALAS [T1G] | 2.13 |
| RPMTIPEFFRESVNRFGTYPALAS [T1R] | 2.34 |
| YPMTIPEFFRESVNRFGTYPALAS [T1Y] | 2.27 |
| WPMTIPEFFRESVNRFGTYPALAS [T1W] | 2 |
| DPMTIPEFFRESVNRFGTYPALAS [T1D] | 2.94 |
| HPMTIPEFFRESVNRFGTYPALAS [T1H] | 2.07 |
| TAMTIPEFFRESVNRFGTYPALAS [P2A] | 2 |
| TCMTIPEFFRESVNRFGTYPALAS [P2C] | 1.72 |
